Reference: US20130108636A1

Target: gp120s
Assay: binding assay, method not stated

B1: m36d1 (VHH)
chain: QVQLVQSGGGLVQPGGSLRLSCAASAFDFSDYEMSWVRQAPGKGLEWIGEINDSGNTIYNPSLKSRVTISRDNSKNTLYLQMNTLRAEDTAIYYCAIYGGNSGGEYWGQGTLVTVSSGGGGSGGGGSGGGGSQVQLVQSGGGLVQPGGSLRLSCAASAFDFSDYEMSWVRQAPGKGLEWIGEINDSGNTIYNPSLKSRVTISRDNSKNTLYLQMNTLRAEDTAIYYCAIYGGNSGGEYWGQGTLVTVSS
In the case of B1, the fold decrease in binding compared to m36 is reported as 16 fold.
